Experimental data: the supplement of paper PMC12636428

System: Saccharomyces cerevisiae
Test: transcriptional activation domain activity (GFP:mCherry ratio, weighted mean of sorted bins, harmonized to initial dataset scale) (arbitrary fluorescence ratio units); higher = stronger transcriptional activation
Details: beta-estradiol 1 µM; induction time 4 h
Summary of the method: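 After a 1:5 dilution into SC with 1 uM beta-estradiol and 4 hours at 30 °C, yeast diploids carrying a GFP reporter and URA3-integrated barcoded tiles were sorted into 8 bins by GFP:mCherry ratio. The tiles were fused to an estradiol-inducible synthetic transcription factor. Barcodes were sequenced, tiles below 50 reads were discarded, and activation activity was taken as the read-weighted mean of bin median fluorescence, averaged across barcodes and linearly mapped onto the initial dataset scale.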

Sequence | transcriptional activation domain activity
ASASASALPSSGFGATRGMKVRASVKKICEGCSSVKRRGRVFIICSKNQKHKQ | 36400
LAMQGFFRTFGLLCINFDSAFRLATFFLPNMIQYTGYLIPTFQMKRWLFWISY | 43200
VGLFGMGQKRISALIGVLFAFTLGCVLILRWRLPWYRNLIQTLLYHLFVIYLH | 52600
VPMAYHHYIALLIFGAYLSNVNALCVLSLLPLLLHSLFWSLGATNFLLLSVYN | 56600
MRGFYYYLFCLFAEFGIHGVLFHGGFFLLLFFFLSSSLWLALTRFRWPFPFVF | 57800
GPDPFQQLSSAEHPNNHSSDDEHSGSQPLPLDSITIGIPPTLHTIPMILSKDN | 62900
IHFFFFGGTYFFFFCQWGFGGFFFSFLTFIPFFSYIFHIFHYAVLWLWLWLWL | 59800
KRKDAAKKKSEREWKDRVKGVEKAGRDRQKRREENIRKRKEEKGRGKGKKGKG | 6830
LPLYNFVRQHLCVFLDRYEHMLTRFLTLGNIMVVSSAVRRGAYWHLLETCQHT | 50200
SALRYYFKVELYNLPARQWFERCFFTPLEVFNTAWLAYILLAQTTGSMVNCAC | 38200
ARDDGGGEGAAGETHQAQEARRVLDAGGRARAGAGALRAGPQQHPAPARALRP | 14300
EVYLLRFEQCLTRAMTLIRMFFVGSLRALTQDVSRRLAEKDVSQTAQTHLLYT | 46300
PKRKRAAPKKKDAEDNTEEKPKRGRKKKEENGDAEEKPKKAPVRKARATKKVE | < 6570
KKRRKKAKEGAERGKKKRKHTDDGAGVADGVDQRDSQRESDESSADEDGNSGK | 38300
ADDVGKWGAGLPGSAAVGGAGGGEEEEGKEKKAGGGMAARVLISEVSIKLLVP | 33800
MKLMLSLYLLRMIFSLLVFFLLSGNVVATLFGFSMCFLIRFGWCCVLSYVLSF | 68500
RRRFHRRVTGCNCGVKTYKLGESYNDEFESTYLSYYACRICLLVTSLYIARFW | 44500
LFRDDEFWGIFASDVGLLVMMGWYGFKTLLWTYILPLMWVNHWIVMITYLHHT | 55100
MVPFSYVWEFYFFLMSMGGLGFHIFGLGHIFLFTSHIISFFIIGYWCCLICTK | 57200
ALIHLPRPQNELVLTLIIRWLVRTTSPLGVIRAAQTHIGAIGYPDVWPTVLFF | 68900
NPIIRVRGIGLSLTSICFLHCYWILAQVVYPIGQSLPVILAYDIQYFFMGLWF | 56900

Sequence | transcriptional activation domain activity
MTSRLHIICHICVFYGYILMFQAITSYHYFILLCILILILYLLTFILAHFYKY | 36800
ADNNDDEDQDEEEATPAPKPRGGRAPKAAAAATKKSAAAKKAPATRGRKKIIE | 33500
GSTSSSNEEKKEQSITSESKAAGGLFGSIKSNEPPTSAFGSLSTTEAKPAASP | 32800
SYQHLHSVMKVINCLNLMLVVCYFSDVRYLKVLVKFWNELHNDVVSRNKLIIV | 42300
SKKRKIKGGKSRSSSSKSDSSSSSSSSEDGEEKDLSKGVGKRGAKRAKSDDSS | 19000
AGGEAAAGGEAAAGEGAAAGGEAKAGEKAAGEGAKAGEEAAGEAKVEAAKPAA | 18400
KIHLVNLGQISVFFIHRFLFGLIPLFEITTCAFFPLLISLWHIDYLLFYTVMF | 39800
NEEKGGKDAASRESAVHVYGTLGSRIGRGPRSPSVLSRSFHDIHDCLACVLVV | 56900
GSTNRSGDGSSDDERRKSRRRGRRRKASVSSSSSGGSKSSSTTSRSRSRSRSR | 7680
KQYCVRPNSGRIEPGKDVEVQILLQAMKEDPPLDAKCRDKFLVQSVAVSADKE | 40700
LLFFFFLFLSFSSLLHVWGLCLPISSFVGLWSLYLLFSPIPIVLPRVKLLFLA | 60200
MLFLMYIFYLCRCLLLFFLTDIMISLLLPSLFSPLITLFLFFTLFKYMYIYAN | 65400
DNPEQLMKVFLSRNLISTGVIYSEHKCNMMVRLVWLFLCFLHRKSVLPEIRGL | 59500
FTRHLSKEEIDVVVDCVWRASKLRNCTRVTVMECCVRTAPWFNSDGVICAYIM | 49700
VDADTASSVSGMTGGRSARWREDVMELCLACVAVGCVKDVGAVNNYHQTGELR | 42700
LLTWMPTVAWPMYNRCFGSLIWIPIRYELIAIVILSIITFFFLFLAALISIQL | 43300
VLHVLILHLPCCPSPNFLLAPDTTLPLSTLLWYEFSRTLFPVLLFYLPAFLIS | 72100
RANMSTQKLAASASRQINAVVVSAGLMEKTVKVRIGQQKWNAHIRKHFNRTSH | 44400
RGDEDADGDDDEGEGSGDKTGDAEAGAAPSSGAGGGSSNSKKNKKKKNKKKGK | 51900
MEGGRGSRGSHENNELFFFLSLHSRFFFFYLFIYFSLLFFSFTIYFMVFFFFF | 54600
KTGEDRGRGRGRGRGKRKGEGRGGEGKTGEEGEEEEEEKGERREREREREKKK | 23400

Sequence | transcriptional activation domain activity
MNDCSAGCAGGQFPVGQDGLICIVEFNTITCVSTGSIVFLMLHSWLYFVLLIF | 71600
TDSNATQKQLPVLTPSDLLSPFSVPSVSQVLFTNELRSMMLADNNIDSGAFPT | 79900
MRMLLYLLIHFIFMGVWTWLSWFSEVELLMVVLGLLETCFELTDMCGFCIFFV | 69500
MSLVLLLFCLYLRCYSVLAMANGVSVLNAADYPFSVMITKPVMCGGALISLDP | 69000
PINAAISNLMLGMLLFCGSLYTLVTFLPIFHSNCPYYTPLSSPWWRILRALGV | 46000
MFLFVFSLVCIFYYCCYLLLLLLSSWLYSQQFVLFWSLTVHISCCPSFFLNES | 37400
YHFCYHLRLYLYAFQPPLFLRLCHFFSYDGWYLGFTWGFFLFFRFHFPIPSFL | 45900
YIATGRGFATTRISFSILYSRFAGPSIYMGMRNLLLLLYATIAIWMPHLIYFW | 48100
MGGVFWKWKRGVWMVRFFRVFLQIFLADIGLILLVFWHYIVCLCYFLFFLVGI | 52500
SGSGAEGASGTEHRRRTSTRGRGRGRGRGGRTGRGGRTANDAEGAEGAEADAS | 27900
MAALGGGKYFVCMLTQIVVNFCFLLSVPFSSPPLLLPCYLIIRYSFSFFLFCL | 64700
TKCSLDKMLPMLLPLKDALVHMDLMEYYFQTGYLYYLAFSCFILLLYPPFMVL | 53800
TVGPVDNNYRDLEAYLETRYLRYCDPSKSLHLMATLMVRCAINILRFMARHPR | 54100
IPLKKLCHAAIADLFRFLVLSKKDSKDIVARQRLQVAAWMGLWPPKIQRNKWV | 45600
MPALQCALLLHQVNMAFLQWNCMLYTIYHFRIIHIIILLLHMCTRTIICLLNG | 37700
NCLKLGCDCLGMIHYFDGFICSHKGLPIKLENVICMHEQDNGLMWKHTHFRTN | 40800
KADDGGGDEAEKPKKATSKKPKKENDDAMDVDEEAQERPKPKPRPKPKPKAKE | 22000
SHLDRRSNQFCRVQFCYKHLLLLWFFLLLFLAYPCQLLCIIIFPNLVSSLCRF | 31200
QQGGGAAASSSGAAQTTSDHVHKDEKEEDKDRDKKKEEEEKEKRKKRREKNKK | 23700
ETYLFLQDQDESADSHHHDELGSEITLADNKFSYLPPTLEELMEEQDCNNGRS | 84700
QQEGLKAELPHDFLFQHGTDDTMYNLTDDLSSSLSSSINSDMMTPNTYSSSFS | 65000

Sequence | transcriptional activation domain activity
YKVPTASLKDGCLCVNVASEKNFEKDVREKASIYLPSVGKVTILMLLRNLLRL | 55000
KAAVPKTKAAPKAKAVKAPKEKKAAAPKAKAAAKPKAAPKAKKAAAPKAAPAV | 29000
KVGFVLIFLFALLVFTSIICSPIYVFSVPYSSICISLQVHRCCLFYGAVIWFV | 31300
APSPPPAPEPVPEMKAIEAAPEPEPEPEPEDKWDVPVVAKKGKKAKKGAASQA | 25000
RFLICDYLLIIAGLFNIVATSLTQVVVNLGLGRHIMDPSVFPNILQYSYYLWI | 25000
EYVRETTPEKEGGGRRRQKREDVTSGEEDAPDAVEKGKKRKRSAAGGAGAGKK | 48300
MATLLGGFWFLVLCSIMLSALLTPLILLTGSLILLSFGSFPSLPHWLLIIIVH | 62400
KFHYRCGVAAKDTTESLRWVVADHYTWFTCTHCAAHKAHWYFDGSLGLVRLWF | 69200
FIVHTAELHLFRKQYVGQLYRSQKLLGLLARRPHIARLVTRFGMHAMSAPLFY | 57100
LNMLGLALAASGHFPYAVKYDGAIVVANFNMAILMRNEVFGRLLYLLVNTLFA | 71600
KKAEKQEGEDKEKEEKPKPSRGKKRKESEEPNGASAEGEEEPVAKKAKPASKA | 49000
GSKIILVVEQCMCVVIWGCKVCFLLIFWKLAWGLRVRLLIKLVASYVVATFLV | 65900
MLLGCRKRYSAHPFNDFLSFFIFYSSLFFYSLLSPFPFPPHSTPVTSFFILFY | 53700
EDEEEEEEEQEEEEEKEEEVLWAAAPEGGKPVEEEEEEEVVEAEEKKPGEEDA | 24500
TPANSSSTMALVPKEEQKEEEEKSTPADSGSTTASVPKEEEKEEEKSTPADSG | 44400
MCCLVLSLALLGRHGGMNIFFLCFYVGSFVFIFLRVLVVRLLLLLLLCYYQAL | 70200
VLGNLLCAILFRNELWMRFLYLVFIYGLRGVSWAPLSIKYAATSILQHVGGIH | 29200
MFFLLVLAAVISGYKAVLKHFLVVISLFLHMIYLVPPLCLWKPILVASILSSP | 44700
SKDDRSISSEDKASSDKLKKSSDRADRKRKDDDDSKRSKADRKSKRDEERSSD | 29600
DNAHVLQEYLAVFRHLLSYHDPKLSSHMETIGFMPDLYAIPWFLTLFTHVFPL | 58600
